According to patent publication US20020037288A1:

Key:
[1] = target: HM1.24 antigen protein (human); assay: FCM, indirect method, 25 ug/ml antibody; JM cells (T cell line)
[2] = target: HM1.24 antigen protein (human); assay: FCM, indirect method, 25 ug/ml antibody; CESS cells (B cell line)
[3] = target: HM1.24 antigen protein (human); assay: FCM, indirect method, 25 ug/ml antibody; EB-3 cells (B cell line)
[4] = target: HM1.24 antigen protein (human); assay: FCM, indirect method, 25 ug/ml antibody; KT-3 cells (T cell line)
[5] = target: HM1.24 antigen protein (human); assay: FCM, indirect method, 25 ug/ml antibody; MT-1 cells (T cell line)
[6] = target: HM1.24 antigen protein (human); assay: FCM, indirect method, 25 ug/ml antibody; MC116 cells (B cell line)
[7] = target: HM1.24 antigen protein (human); assay: FCM, indirect method, 25 ug/ml antibody; Jijoye cells (B cell line)
[8] = target: HM1.24 antigen protein (human); assay: FCM, indirect method, 25 ug/ml antibody; Jurkat cells (T cell line)
[9] = target: HM1.24 antigen protein (human); assay: FCM, indirect method, 25 ug/ml antibody; MOLT-4 cells (T cell line)
[10] = target: HM1.24 antigen protein (human); assay: FCM, indirect method, 25 ug/ml antibody; CCRF-SB cells (B cell line)
[11] = target: HM1.24 antigen protein (human); assay: FCM, indirect method, 25 ug/ml antibody; HPB-ALL cells (T cell line)
[12] = target: HM1.24 antigen protein (human); assay: FCM, indirect method, 25 ug/ml antibody; HPB-MLT cells (T cell line)
[13] = target: HM1.24 antigen protein (human); assay: FCM, indirect method, 25 ug/ml antibody; SKW 6.4 cells (B cell line)
[14] = target: HM1.24 antigen protein (human); assay: FCM, indirect method, 25 ug/ml antibody; CCRF-CEM cells (T cell line)
[15] = target: HM1.24 antigen protein (human); assay: FCM, indirect method, 25 ug/ml antibody; RPMI 6410 cells (B cell line)
[16] = target: HM1.24 antigen protein (human); assay: FCM, indirect method, 25 ug/ml antibody; RPMI 8402 cells (T cell line)
[17] = target: HM1.24 antigen protein (human); assay: FCM, indirect method, 25 ug/ml antibody; CCRF-HSB-2 cells (T cell line)

percentage of HM1.24 antigen-positive cells (Expression rate) [1]: 99.6%
percentage of HM1.24 antigen-positive cells (Expression rate) [2]: 94.5%
percentage of HM1.24 antigen-positive cells (Expression rate) [3]: 88.3%
percentage of HM1.24 antigen-positive cells (Expression rate) [4]: 96%
percentage of HM1.24 antigen-positive cells (Expression rate) [5]: 95.9%
percentage of HM1.24 antigen-positive cells (Expression rate) [6]: 65%
percentage of HM1.24 antigen-positive cells (Expression rate) [7]: 92.3%
percentage of HM1.24 antigen-positive cells (Expression rate) [8]: 70.9%
percentage of HM1.24 antigen-positive cells (Expression rate) [9]: 84.1%
percentage of HM1.24 antigen-positive cells (Expression rate) [10]: 98.4%
percentage of HM1.24 antigen-positive cells (Expression rate) [11]: 63.8%
percentage of HM1.24 antigen-positive cells (Expression rate) [12]: 94.6%
percentage of HM1.24 antigen-positive cells (Expression rate) [13]: 92.8%
percentage of HM1.24 antigen-positive cells (Expression rate) [14]: 97.8%
percentage of HM1.24 antigen-positive cells (Expression rate) [15]: 94.5%
percentage of HM1.24 antigen-positive cells (Expression rate) [16]: 94%
percentage of HM1.24 antigen-positive cells (Expression rate) [17]: 100%
Substance: mouse anti-HM1.24 monoclonal antibody
